Reference: patent publication US20130251640A1

Target: trypsin (trypsin-EDTA 0.25%, Sigma-Aldrich)
Test: cell-based or functional assay

Q: With “PLL-FITC (poly-L-lysine conjugated with fluorescein isothiocyanate, FITC/PLL=10/1)” as the substance, how does the change in FITC fluorescence signal (dequenching) read?
A: The change in FITC fluorescence signal (dequenching) was greater than 34 fold.
